Here are results for two substances from paper PMC4310740.

Bounds are passed on as bounds.

Test [1] has as its target G-actin (rabbit muscle actin monomers) (rabbit) (UniProt P68135). In words: fluorescence polarisation. (Polarisation of emitted light reports the rotation of a fluorescent probe.)
The target in test [2] is Alexa 594-labeled N-WASP VCA (S430C) (UniProt O00401). The test is described as follows: fluorescence polarisation.
Alexa 594-labeled N-WASP VCA (S430C), sequence (O00401 whole entry S430C): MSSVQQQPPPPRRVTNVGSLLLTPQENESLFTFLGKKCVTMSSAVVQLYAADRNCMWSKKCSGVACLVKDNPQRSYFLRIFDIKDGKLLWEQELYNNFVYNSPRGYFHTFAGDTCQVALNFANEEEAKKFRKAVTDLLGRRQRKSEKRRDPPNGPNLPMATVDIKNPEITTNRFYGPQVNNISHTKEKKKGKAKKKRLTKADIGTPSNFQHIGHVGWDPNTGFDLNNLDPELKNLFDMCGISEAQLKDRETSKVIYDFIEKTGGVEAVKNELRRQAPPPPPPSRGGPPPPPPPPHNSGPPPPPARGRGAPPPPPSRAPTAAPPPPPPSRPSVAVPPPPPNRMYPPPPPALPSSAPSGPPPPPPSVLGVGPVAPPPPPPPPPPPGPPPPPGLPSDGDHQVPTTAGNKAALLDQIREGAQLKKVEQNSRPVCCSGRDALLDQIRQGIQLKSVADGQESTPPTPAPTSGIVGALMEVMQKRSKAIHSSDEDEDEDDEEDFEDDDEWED

As to “human WAVE1 GST-VCA K507Q (from UniProt Q92558 1-559) (domain or fragment)”, the fold reduction of affinity against wild-type WAVE1 GST-VCA in test [1] was less than 2 fold.

On to “G-actin (rabbit muscle actin monomers) (from UniProt P68135 1-377) (natural protein)”, for which the Kd (as a rule, the equilibrium constant for the complex coming apart) in test [2] amounted to 106 nM.
